US20240377408A1
Each block holds one binder with its values, some of them ahead of it.

What was measured:
[1] = molecular target: biotinylated peptide M64-P1-P2-ΔK-(PEG9)(PEG9)-K(Biotin) with P1 = V; assay: BLI, biotinylated peptide on streptavidin tips, binder in solution
[2] = molecular target: biotinylated peptide M64-P1-P2-ΔK-(PEG9)(PEG9)-K(Biotin) with P1 = T; assay: as above

Kd [1]: < 350 nM
B1: S279_0004 (designed binder, not shown: small tags and cut ends; large carriers)
chain: EWGYASHNGPDHWHELFPNAKGENQSPIELHTKDIRHDPSLQPWSVSYDGGSAKTILNNGKTLGVVFDDTYDRSMLRGGPLPGPYRLREFHLHWGSSDDHGSEHTVDGVKYAAELHLLHWNPKYNTFKEALKQRDGLAVIGIFLKIGHENGEFQIFLDALDKIKTKGKEAPFTKFDPSSLFPASRDYWTYQGSMTIPPLMEAVVWLLLKEPMTVSSDQMAKLRSLLSSAENEPPVPLVSNWRPPQPINNRVVRASFK

Kd [1]: 20 nM
koff [1]: 0.000473 s⁻¹
kon [1]: 23700 M⁻¹ s⁻¹
Kd [2]: 488 nM
koff [2]: 0.0111 s⁻¹
kon [2]: 23300 M⁻¹ s⁻¹
B2: Synthetic binder, S279_0004 (designed binder)
chain: B1 chain
